Measured values reported in publication PMC10469627, “Molecular basis of the glycosomal targeting of PEX11 and its mislocalization to mitochondrion in trypanosomes” (Frontiers in Cell and Developmental Biology, 2023).

T1: GST-HsPEX19 (human, UniProt P40855 1-299)
T1 construct: human PEX19, expressed from pGEX4T1-HsPEX19; also called GST-tagged recombinant human PEX19; recombinant human GST-PEX19; source: E. coli BL21 (DE3), purified (Glutathione Agarose 4B)
T1 sequence (looked up): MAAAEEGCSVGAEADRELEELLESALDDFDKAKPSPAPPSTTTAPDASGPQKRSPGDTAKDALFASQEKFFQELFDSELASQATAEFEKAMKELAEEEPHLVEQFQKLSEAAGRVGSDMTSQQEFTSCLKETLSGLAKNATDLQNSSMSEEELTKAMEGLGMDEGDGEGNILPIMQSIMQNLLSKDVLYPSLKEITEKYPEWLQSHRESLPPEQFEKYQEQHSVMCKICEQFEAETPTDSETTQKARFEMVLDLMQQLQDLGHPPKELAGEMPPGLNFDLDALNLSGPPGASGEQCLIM


Target: T1, GST-HsPEX19
Experiment: peptide or protein array; 15-mer peptides (2 aa shift) on a cellulose membrane; probed with 1 µM GST fusion or GST in TBS + 3% BSA + 0.05% Tween-20, 1 h at 4°C; detected with anti-GST antibody and chemiluminescence; at least three consecutive spots counted as a potential site
Conditions: both partners purified

Row | Binder | binding result
1 | QTDGRDKILKAFSGVFKALGSLD (PEX11 of Trypanosoma brucei, residues 13-35 (BS1); on the array this stretch stood as consecutive overlapping 15-mers (2 aa shift), each on its own spot; source: synthetic peptides, synthesized on a cellulose membrane) [TbPEX11 array peptides of BS1 (aa 13-35)] | binds
2 | CRAKGKVNMKEVLKFLRVLCNFL (PEX11 of Trypanosoma brucei, residues 77-99 (BS2); on the array this stretch stood as consecutive overlapping 15-mers (2 aa shift), each on its own spot; source: synthetic peptides, synthesized on a cellulose membrane) [TbPEX11 array peptides of BS2 (aa 77-99)] | binds
3 | VLDVVALYGALQKRASDPATS (PEX11 of Trypanosoma brucei, residues 139-159 (BS3); on the array this stretch stood as consecutive overlapping 15-mers (2 aa shift), each on its own spot; source: synthetic peptides, synthesized on a cellulose membrane) [TbPEX11 array peptides of BS3 (aa 139-159)] | binds
